The results in this text go back to patent publication US20210284690A1.

For assay [1], the target named is extracellular part of human CD40L (aa 108-261 recombinantly produced in E. coli) (human) (UniProt P29965). Briefly: BLI (OctetRED96), Fab captured on anti-human Fab-CH1 (FAB2G) sensors, soluble CD40L 2.5-80 nM, 1:1 global fit; purchased.
Assay [2] addresses IL-1β. Put plainly: cell-based or functional assay.

pKd: −log10 of the molar value.

extracellular part of human CD40L (aa 108-261 recombinantly produced in E. coli) (human), sequence (P29965 108-261 limits assumed): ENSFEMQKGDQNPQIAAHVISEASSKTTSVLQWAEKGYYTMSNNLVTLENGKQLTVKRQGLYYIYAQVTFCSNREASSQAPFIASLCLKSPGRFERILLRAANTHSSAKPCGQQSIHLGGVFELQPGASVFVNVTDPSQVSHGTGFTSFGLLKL

For the substance Dapirolizumab Fab, the pKd in assay [1] is more than 9.52.
“Met-huIL-1Ra (Anakinra) (from UniProt P18510 26-177) (ligand)” gave an NHDF IC50 (pM); inhibition of IL-1β induced IL-6 release from NHDF cells in assay [2] of 70 pM.
As for “PEG(L30kDa)-Met-huIL-1Ra (from UniProt P18510 26-177) (ligand)”, the NHDF IC50 (pM); inhibition of IL-1β induced IL-6 release from NHDF cells in assay [2] was determined as 900 pM.

As usually defined, the pKd is the negative decadic logarithm of the Kd, by convention in mol/L.
